B1: Azoarcus group I ribozyme (parent)
chain: GUGCCUUGCGCCGGGAAACCACGCAAGGGAUGGUGUCAAAUUCGGCGAAACCUAAGCGCCCGCCCGGGCGUAUGGCAACGCCGAGCCAAGCUUCGGCGCCUGCGCCGAUGAAGGUGUAGAGACUAGACGGCACCCACCUAAGGCAAACGCUAUGGUGAAGGCAUAGUCCAGGGAGUGGCGAAAGUCACACAAACCGG

Variants of: B1
Assay: reverse-splicing fitness (ratio to wild type); higher = more active; in vitro selection; Mg2+ level not given
Method in brief: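 An in vitro group I ribozyme library with randomized positions was T7-transcribed and gel-purified. In triplicate, 10 pmol RNA in EPPS pH 7.5 was reacted with 50 pmoles of a 30-nt RNA substrate for 1 h at 37 °C across several added MgCl2 levels (1–48 mM), then stopped with EDTA. Products were reverse transcribed from a substrate-complementary primer, PCR-amplified and sequenced (HiSeq 4000). Fitness is a variant's read proportion after selection over that before, normalised to wild type.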

Variant | reverse-splicing fitness
C82G A111U A120G C150A C169G | 0.0106
C82G A111U A120G C150A C169A | 0.0117
C82G A111U A120G C150A C169U | 0.00827
C82G A111U A120G A145C C150A U176G | 0.00582
C82G A111U A120G A145C C150A U176C | 0.0103
C82G A111U A120G A145C C150A U176A | 0.00962
C82G A111U A120G A145G C150U C169U U176G | 0.00561
C82G A111U A120G A145G C150U C169U U176A | 0.0169
C82G A111U A120G A145G C150U C169U U176C | 0.0151
C82G A111U A120G A145G C150A C169A U176C | 0.0216
C82G A111U A120G A145G C150A C169A U176G | 0.00669
C82G A111U A120G A145G C150A C169A U176A | 0.0195
C82G A111U A120C C169A U176A | 0.0193
C82G A111U A120C C169A U176C | 0.0224
C82G A111U A120C C169A U176G | 0.00684
C82G A111U A120C C150U C169A | 0.0105
C82G A111U A120C C150U C169U | 0.0125
C82G A111U A120C C150U C169G | 0.00965
C82G A111U A120U A145C C150A C169U U176A | 0.00306
C82G A111U A120U A145C C150A C169U U176C | 0.00247
C82G A111U A120G A145C | 0.0134

Variant | reverse-splicing fitness
C82G A111U A120G A145U | 0.0161
C82G A111U A120G A145G | 0.0151
C82G A111U A120G A145C C150U C169A | 0.00886
C82G A111U A120G A145C C150U C169G | 0.00915
C82G A111U A120G A145C C150U C169U | 0.00738
C82G A111U A120C C150U C169U U176A | 0.0146
C82G A111U A120C C150U C169U U176C | 0.0139
C82G A111U A120C C150U C169U U176G | 0.00768
C82G A111U A120G A145U C169A U176G | 0.00445
C82G A111U A120G A145U C169A U176A | 0.0133
C82G A111U A120G A145U C169A U176C | 0.0135
C82G A111U A120G C150U C169A U176C | 0.0182
C82G A111U A120G C150U C169A U176G | 0.00614
C82G A111U A120G C150U C169A U176A | 0.0173
C82G A111U A120G A145U C150G | 0.00715
C82G A111U A120G A145U C150U | 0.0139
C82G A111U A120G A145U C150A | 0.00819
C82G A111U A120G A145C C150G C169A | 0.00877
C82G A111U A120G A145C C150G C169U | 0.0084
C82G A111U A120G A145C C150G C169G | 0.00796
C82G A111U A120G A145C C169U U176C | 0.0168

Variant | reverse-splicing fitness
C82G A111U A120G A145C C169U U176G | 0.00479
C82G A111U A120G A145C C169U U176A | 0.0203
C82G A111U A120G A145G C150G C169U | 0.00909
C82G A111U A120G A145G C150G C169A | 0.00911
C82G A111U A120G A145G C150G C169G | 0.00782
C82G A111U A120G C150A U176A | 0.0143
C82G A111U A120G C150A U176C | 0.0195
C82G A111U A120G C150A U176G | 0.0103
C82G A111U A120G C150G | 0.00634
C82G A111U A120G C150U | 0.0127
C82G A111U A120G C150A | 0.00998
C82G A111U A120C C150G C169G | 0.00753
C82G A111U A120C C150G C169A | 0.00975
C82G A111U A120C C150G C169U | 0.0106
C82G A111U A120G A145G C150U U176G | 0.00777
C82G A111U A120G A145G C150U U176C | 0.0167
C82G A111U A120G A145G C150U U176A | 0.00946
C82G A111U A120G A145U C150G C169U | 0.00825
C82G A111U A120G A145U C150G C169A | 0.00944
C82G A111U A120G A145U C150G C169G | 0.00774
C82G A111U A120C U176G | 0.00814

Variant | reverse-splicing fitness
C82G A111U A120C U176A | 0.0172
C82G A111U A120C U176C | 0.0303
C82G A111U A120G C150U C169G U176C | 0.0205
C82G A111U A120G C150U C169G U176A | 0.0168
C82G A111U A120G C150U C169G U176G | 0.0053
C82G A111U A120G A145U C150A U176G | 0.00661
C82G A111U A120G A145U C150A U176C | 0.0173
C82G A111U A120G A145U C150A U176A | 0.0108
C82G A111U A120C C150A C169A U176C | 0.0217
C82G A111U A120C C150A C169A U176A | 0.0237
C82G A111U A120C C150A C169A U176G | 0.00867
C82G A111U A120G C150U C169G | 0.0112
C82G A111U A120G C150U C169A | 0.0112
C82G A111U A120G C150U C169U | 0.0101
C82G A111U A120G A145C C150A C169A U176A | 0.0145
C82G A111U A120G A145C C150A C169A U176C | 0.00752
C82G A111U A120G A145C C150A C169A U176G | 0.00583
C82G A111U A120G A145U C150G C169A U176C | 0.0114
C82G A111U A120G A145U C150G C169A U176A | 0.0104
C82G A111U A120G A145U C150G C169A U176G | 0.00513
